Substitutions are numbered along the chain they refer to. Names and notes keep the numbering of the source. Like-named read-outs stand apart in the source and are kept apart here.
Legend:
[1] = target: T1, cynomolgus BCMA, on transiently transfected 293T cells (cynomolgus (Macaca fascicularis), UniProt Q02223 1-184 (human entry)); assay: FACS
T1 construct: also called cyno BCMA

[2] = target: T2, BAFF-R, full length, on transiently transfected cells (human, UniProt Q96RJ3 1-184); assay: FACS
T2 construct: whole, on cells; also called huBAFF-R
T2 sequence (looked up): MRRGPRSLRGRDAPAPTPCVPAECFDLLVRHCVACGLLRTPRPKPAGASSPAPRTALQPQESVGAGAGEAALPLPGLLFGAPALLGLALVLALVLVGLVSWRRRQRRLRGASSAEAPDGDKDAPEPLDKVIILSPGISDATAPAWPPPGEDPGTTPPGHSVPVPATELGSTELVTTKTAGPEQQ

[3] = target: T3, TACI, full length, on transiently transfected cells (human, UniProt O14836 1-293); assay: FACS
T3 construct: whole, on cells; also called huTACI
T3 sequence (looked up): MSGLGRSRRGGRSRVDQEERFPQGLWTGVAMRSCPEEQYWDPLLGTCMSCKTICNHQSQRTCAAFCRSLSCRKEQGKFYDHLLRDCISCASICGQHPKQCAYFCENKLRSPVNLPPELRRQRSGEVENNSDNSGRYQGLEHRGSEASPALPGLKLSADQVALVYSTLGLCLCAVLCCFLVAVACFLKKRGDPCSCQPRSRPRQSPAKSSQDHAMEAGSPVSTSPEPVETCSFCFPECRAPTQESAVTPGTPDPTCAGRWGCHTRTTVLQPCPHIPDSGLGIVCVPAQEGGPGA

[4] = target: T4, human BCMA (huBCMA), full length, on cells (human, UniProt Q02223 1-184); assay: FACS
T4 construct: also called native huBCMA; B-cell maturation antigen
T4 chain: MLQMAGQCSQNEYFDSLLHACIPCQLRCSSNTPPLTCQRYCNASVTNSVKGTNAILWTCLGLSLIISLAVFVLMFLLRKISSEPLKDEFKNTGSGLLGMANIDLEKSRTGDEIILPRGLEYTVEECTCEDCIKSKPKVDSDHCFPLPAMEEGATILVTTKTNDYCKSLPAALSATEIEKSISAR

[5] = target: T4, human BCMA (huBCMA), full length, on …; assay: cell-based or functional assay
[6] = target: T1, cynomolgus BCMA, on transiently …; assay: FACS O/N
[7] = target: T1, cynomolgus BCMA, on transiently …; assay: FACS; remark: listed apart in the source
[8] = target: T3, TACI, full length, on transiently …; assay: FACS; remark: listed apart in the source
[9] = target: T4, human BCMA (huBCMA), full length, on …; assay: FACS
[10] = target: T4, human BCMA (huBCMA), full length, on …; assay: APRIL blocking FACS; parameters: concentration or dose not given beside the values
[11] = target: T4, human BCMA (huBCMA), full length, on …; assay: cell-based or functional assay

T1 sequence (Q02223 other isoform, or with tags, fused parts or gaps): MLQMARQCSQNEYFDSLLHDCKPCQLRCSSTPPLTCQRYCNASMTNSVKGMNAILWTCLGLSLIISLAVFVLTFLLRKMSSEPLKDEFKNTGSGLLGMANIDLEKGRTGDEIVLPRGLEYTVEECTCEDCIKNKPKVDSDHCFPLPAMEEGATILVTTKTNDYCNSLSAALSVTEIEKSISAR

B1: 33D4 (antibody, V domains shown)
VH: QVQLQQSGPGLVKPSQTLSLTCAISGDSVSSTNVAWNWIRQSPSRGLEWLGGTFYRSNWYNDYAISVKSRITINPDTSKNQFSLQLNSVTPEDTAVYYCARFYSWNSYFDYWGQGILVTVSS
VL: QPVLTQPPSASASLGASVTLTCTLSSGYSNYKVDWYQHRPGKGPRFVMRVGTGGIVGSKGDGIPDRFSVLGSGLNRYLTIKNIQEEDESDFHCGADHGSETNFVYVFGTGTKVTVLG
notes: Tested as purified hybridoma IgG2 or IgG4; also called Ab-14; 33D4.1
B1 was tested, and the MFI [1] was 19400, the MFI [2] was 723 and the binding result [2] was “no binding”. For the same binder, the MFI [3] was 261, the binding result [3] was “no binding” and the MFI [4] was 89900.

B2: 1E1-MCC-DM1 (antibody drug conjugate) (other)
VH: QVQLVQSGAEVKKPGASVKVSCKASGYTFTGHYIHWVRQAPGQGLEWMGWIYPNSGGTNYAQKFQGRVTMTRDTSISTAYMELSRLRSDDSAVYYCAREGMVTGDYYYYRMDVWGQGTTVIVSS
VL: B1 VL with T23S, H38Q, T52I, E100G, T101N
modifications: antibody carries DM1 through the MCC linker; sites not stated
For B2, the “cell viability IC50 (CellTiter-Glo, 96 h), H929 cells” value [5] was 0.63 nM.

B3: 30E1 (antibody, V domains shown)
VH: EVQLLESGGGLVQPGGSLRLSCAASGFTFSSHAMSWVRQAPGKGLEWVSAISGGDGNTYYADSVKGRFAISRDNSKNVVYLQMNSLRAEDTAVYFCAKDLVGVVAGYYYYFGMDVWGQGTTVTVSS
VL: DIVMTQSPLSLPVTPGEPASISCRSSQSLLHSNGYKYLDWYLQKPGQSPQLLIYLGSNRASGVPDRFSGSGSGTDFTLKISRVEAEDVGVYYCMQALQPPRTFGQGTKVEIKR
notes: Tested as purified hybridoma IgG2 or IgG4; also called Ab-9; 30E1.1
In the case of B3, the MFI [6] is reported as 130, the MFI [7] is reported as 78500 and the MFI [8] is reported as 555. For the same binder, the binding result [8] was “no binding”, the MFI [9] was 109000 and the “% Inhibition n=1” value [10] was 31%. For the same binder, the “% Inhibition n=2” value [10] was 46% and the “Avg. % Inhibition” value [10] was 38%.

B4: 2A1 Covariance 4 (2A1_D84N + C107T) (antibody, human IgG1, lambda, V domains shown)
VH: EVQLVESGGGLVKPGRSLRLSCTASGFTFGDYALSWFRQAPGKGLEWVGVSRSKAYGGTTDYAASVKGRFTISRDNSKSFAYLQMNSLKTEDTAVYYCTSSGYSSGWTPFDYWGQGTLVTVSS
VL: not shown
In the case of B4, the “ADCC EC50” value [11] is reported as 0.028 µg/mL.

B5: 2A1 Covariance 11 (2A1_F44V + C107A + S108K) (antibody, human IgG1, lambda, V domains shown)
VH: B4 VH with F37V, N76D, T99A, S100K
VL: not shown
In the case of B5, the “ADCC EC50” value [11] is reported as 0.364 µg/mL.

B6: 2A1 Covariance 7 (2A1_S108K + C107T) (antibody, human IgG1, lambda, V domains shown)
VH: B4 VH with N76D, S100K
VL: not shown
For B6, the “ADCC EC50” value [11] was 0.0191 µg/mL.

B7: 2A1 Covariance 13 (2A1_F44V + F88T + C107A) (antibody, human IgG1, lambda, V domains shown)
VH: B4 VH with F37V, N76D, F80T, T99A
VL: not shown
B7 was tested, and the “ADCC EC50” value [11] was 0.0327 µg/mL.

B8: 2A1 Covariance 5 (2A1_F88T + C107T) (antibody, human IgG1, lambda, V domains shown)
VH: B4 VH with N76D, F80T
VL: not shown
B8 was tested, and the “ADCC EC50” value [11] was 0.016 µg/mL.

B9: 2A1 Covariance 6 (2A1_C107A) (antibody, human IgG1, lambda, V domains shown)
VH: B4 VH with N76D, T99A
VL: not shown
B9 was tested, and the “ADCC EC50” value [11] was 0.0169 µg/mL.

B10: 2A1 Covariance 12 (2A1_T24A + F44V + F88T + C107T) (antibody, human IgG1, lambda, V domains shown)
VH: B4 VH with T23A, F37V, N76D, F80T
VL: not shown
B10 was tested, and the “ADCC EC50” value [11] was 0.111 µg/mL.

B11: 2A1 Covariance 14 (2A1_T24A + F44V + F88T + C107A) (antibody, human IgG1, lambda, V domains shown)
VH: B4 VH with T23A, F37V, N76D, F80T, T99A
VL: not shown
In the case of B11, the “ADCC EC50” value [11] is reported as 0.0417 µg/mL.
